Test results published in patent US20210395725A1 (EVERCYTE, published 2021).

Assays:
human EGFR-Fc [1] = target: T1, human EGFR-Fc (human, UniProt P00533 25-645, biotinylated with EZ-Link Sulfo-NHS-LC-LC-Biotin in most assays); experiment: HEK293-6E cell display flow cytometry; 500 nM biotinylated antigen + streptavidin-Alexa Fluor 647; secondary only 14.11 (same values as in Table 12)
T1 construct: Bought; also called Human EGFR-Fc-biotin; EGFR-Fc-biotin
Description: (§1) 1×10⁵ cells have been blocked in 2% BSA-PBS for 30 min on ice and then stained with each 500 nM biotinylated human EGFR-Fc, biotinylated human Her2/neu-Fc and biotinylated mouse EGFR-Fc for 30 min on ice in 2% BSA-PBS. […] Cells were then centrifuged at 300 g, 5 min at 4° C. and re-suspended in 200 μl ice-cold PBS. […] The fluorescence has been determined with Guava EasyCyte flow cytometer.

mouse EGFR-Fc [2] = target: T2, mouse EGFR-Fc (mouse, UniProt Q01279 25-647, limits assumed, biotinylated with EZ-Link Sulfo-NHS-LC-LC-Biotin); experiment: as above
T2 construct: Bought; also called Mouse EGFR-Fc-biotin; biotinylated mouse EGFR-Fc
Description: as §1

human Her2/neu-Fc [3] = target: T3, human Her2/neu-Fc (human, UniProt P04626 23-652, biotinylated with EZ-Link Sulfo-NHS-LC-LC-Biotin); experiment: as above
T3 construct: Bought; also called Human Her2/neu-Fc-biotin; biotinylated human Her2/neu-Fc
Description: as §1

mouse EGFR-Fc [4] = target: T2, mouse EGFR-Fc; experiment: yeast display flow cytometry; mouse EGFR-Fc + streptavidin-Alexafluor 647
human EGFR-Fc [5] = target: T1, human EGFR-Fc; experiment: HEK293-6E cell display flow cytometry; 500 nM biotinylated antigen + streptavidin-Alexa Fluor 647; secondary only 14.11
Description: as §1

mouse EGFR-Fc [6] = target: T2, mouse EGFR-Fc; experiment: as above
Description: as §1

human Her2/neu-Fc [7] = target: T3, human Her2/neu-Fc; experiment: as above
Description: as §1

human placental laminin = target: T4, human placental laminin (human); experiment: ELISA; biotinylated laminin 5 µg/ml on streptavidin plate, neat eluted His-tagged protein, anti-pentaHis-HRP
T4 construct: Bought; also called human laminin; laminin-biotin
Description: Neat eluted proteins were tested for binding to their cognate antigen and BSA as a control antigen. Streptavidin-activated plates (Immobilizer, NUNC) were coated with biotinylated laminin at 5 μg/ml in PBS for 30 min at RT and blocked with 4% BSA-PBS for 1 h at RT. Eluted proteins were added in 2% BSA-PBS and allowed to bind for 1 h at RT. […] The reaction was stopped with the addition of H₂SO₄ and the absorbance read at 450/620 nm (Table 15).

[8] = target: T5, streptavidin-Alexafluor 647 (UniProt P22629 37-163, limits assumed, Alexa Fluor 647 conjugate); experiment: yeast display flow cytometry, secondary reagent only
T5 construct: Secondary detection reagent, tested alone as a control; also called secondary reagent; 2nd

mouse EGFR-Fc [9] = target: T2, mouse EGFR-Fc; experiment: yeast display flow cytometry, clone 9
[10] = target: T5, streptavidin-Alexafluor 647; experiment: yeast display flow cytometry; secondary reagent only
human EGFR-Fc [11] = target: T1, human EGFR-Fc; experiment: HEK293-6E cell display flow cytometry; 500 nM biotinylated antigen + streptavidin-Alexa Fluor 647; secondary only 5.82
Description: (§2) 1×10⁵ cells have been blocked in 2% BSA-PBS for 30 min on ice and then stained with each 500 nM biotinylated human EGFR-Fc, biotinylated human Her2/neu-Fc and biotinylated mouse EGFR-Fc for 30 min on ice in 2% BSA-PBS. […] Cells were then centrifuged at 300 g, 5 min at 4° C. and resuspended in 200 μl ice-cold PBS. […] The fluorescence has been determined with Guava EasyCyte flow cytometer.

mouse EGFR-Fc [12] = target: T2, mouse EGFR-Fc; experiment: as above
Description: as §2

human Her2/neu-Fc [13] = target: T3, human Her2/neu-Fc; experiment: as above
Description: as §2

human Her2/neu-Fc [14] = target: T3, human Her2/neu-Fc; experiment: flow cytometry, HEK293-6E cell display (pDisplay)
Description: as §2, §1

human EGFR-Fc [15] = target: T1, human EGFR-Fc; experiment: flow cytometry, HEK293-6E cell display (pDisplay)
Description: as §2, §1

mouse EGFR-Fc [16] = target: T2, mouse EGFR-Fc; experiment: flow cytometry, HEK293-6E cell display (pDisplay)
Description: as §2, §1

human EGFR-Fc [17] = target: T1, human EGFR-Fc; experiment: HEK293-6E cell display flow cytometry; 500 nM biotinylated antigen + streptavidin-Alexa Fluor 647; secondary only 2.67
Description: as §1

mouse EGFR-Fc [18] = target: T2, mouse EGFR-Fc; experiment: as above
Description: as §1

human Her2/neu-Fc [19] = target: T3, human Her2/neu-Fc; experiment: as above
Description: as §1

T5 sequence (P22629 37-163 limits assumed): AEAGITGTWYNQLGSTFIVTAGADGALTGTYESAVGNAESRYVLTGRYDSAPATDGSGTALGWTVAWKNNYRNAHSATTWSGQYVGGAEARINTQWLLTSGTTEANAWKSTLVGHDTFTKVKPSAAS

B1: wild-type human CD81 LEL (other)
chain: FVNKDQIAKDVKQFYDQALQQAVVDDDANNAKAVVKTFHETLDCCGSSTLTALTTSVLKNNLCPSGSNIISNLFKEDCHQKIDDLFSGK
notes: the formats are named in the assay field; The soluble form runs as a dimer in SEC; also called wild-type CD81 LEL; hCD81 LEL
% antigen binding cells (human EGFR-Fc [1]): 10.4%
% antigen binding cells (mouse EGFR-Fc [2]): 12.8%
% antigen binding cells (human Her2/neu-Fc [3]): 10.5%
median fluorescence (mouse EGFR-Fc [4]): 9.1
% antigen binding cells (human EGFR-Fc [5]): 10.4%
% antigen binding cells (mouse EGFR-Fc [6]): 12.8%
% antigen binding cells (human Her2/neu-Fc [7]): 10.5%

B2: laminin-binding CD81 LEL mutant L3A_LU1 (designed binder)
chain: FVNKDQIAKDVKQFYDQCLLWACSKRYKYNAKACVKTFHETLDCCGSSTMGNLTECVLIENLCPSGSNIISNLFKEDCHQKIDDLFSGK
A450/620 (average) (human placental laminin): 1.7

B3: CD81 LEL library 1 variant RAN / IWRARRRRS (yeast clones 3, 13, 21 of the mouse EGFR-Fc selection) (designed binder)
chain: FVNKDQIAKDVKQFYDQALQQAVVDDDANNAKAVVKTFHETLDCCGSRANTALTTSVLKNNLCPSGSNIWRARRRRSCHQKIDDLFSGK
notes: also called clone 3; clone 13
binding result [8]: no binding

B4: CD81 LEL library 1 variant VRR / RRPRKRTRS (yeast clones 1, 8, 15 of the mouse EGFR-Fc selection) (designed binder)
chain: FVNKDQIAKDVKQFYDQALQQAVVDDDANNAKAVVKTFHETLDCCGSVRRTALTTSVLKNNLCPSGSNRRPRKRTRSCHQKIDDLFSGK
notes: also called clone 1; clone 8
binding result [8]: no binding

B5: CD81 LEL library 1 variant SSS / SRRWRHRIA (yeast clones 6, 18 of the mouse EGFR-Fc selection) (designed binder)
chain: FVNKDQIAKDVKQFYDQALQQAVVDDDANNAKAVVKTFHETLDCCGSSSSTALTTSVLKNNLCPSGSNSRRWRHRIACHQKIDDLFSGK
notes: also called clone 6; clone 18
binding result [8]: no binding

B6: CD81 LEL library 1 variant MGN / WWGRRFRVS (yeast clone 9 of the mouse EGFR-Fc selection) (designed binder)
chain: FVNKDQIAKDVKQFYDQALQQAVVDDDANNAKAVVKTFHETLDCCGSMGNTALTTSVLKNNLCPSGSNWWGRRFRVSCHQKIDDLFSGK
binding result (mouse EGFR-Fc [9]): no binding
median fluorescence (mouse EGFR-Fc [4]): 11.8
median fluorescence [10]: 14.6

B7: CD81 LEL library 1 variant SFS / RRFRKRPGD (yeast clones 5, 19 of the mouse EGFR-Fc selection) (designed binder)
chain: FVNKDQIAKDVKQFYDQALQQAVVDDDANNAKAVVKTFHETLDCCGSSFSTALTTSVLKNNLCPSGSNRRFRKRPGDCHQKIDDLFSGK
notes: also called clone 5; clone 19
binding result [8]: no binding

B8: CD81 LEL library 1 variant ERL / RRSRRRVHD (yeast clones 2, 4, 7, 10, 11, 12, 14, 16, 17, 20, 22, 23 of the mouse EGFR-Fc selection) (designed binder)
chain: FVNKDQIAKDVKQFYDQALQQAVVDDDANNAKAVVKTFHETLDCCGSERLTALTTSVLKNNLCPSGSNRRSRRRVHDCHQKIDDLFSGK
notes: also called clone 2; clone 4
binding result [8]: no binding

B9: EGFR-specific CD81 LEL binder L2B_EU1_1 (designed binder)
chain: FVNKDQIAKDVKQFYDQALWWCCVLYKANNACAVVKTFHETLDCCGSSTGRSHTACVLKGNLCPSGSNIISNLFKEDCHQKIDDLFSGK
notes: also called L2BE1_1
% antigen binding cells (human EGFR-Fc [11]): 71.1%
% antigen binding cells (mouse EGFR-Fc [12]): 89.3%
% antigen binding cells (human Her2/neu-Fc [13]): 8.17%
binding result (human Her2/neu-Fc [14]): no binding (tested: 500 nM)

B10: anti-Her2/neu directed CD81 LEL clone 81_H2_11 (designed binder)
chain: FVNKDQIAKDVKQFYDQALVNCCYTRAANNACAVVKTFHETLDCCGSSTHYVDTHCVLNRNLCPSGSNIISNLFKEDCHQKIDDLFSGK
notes: also called anti-Her2/neu clone
binding result (human EGFR-Fc [15]): no binding (tested: 500 nM)
binding result (mouse EGFR-Fc [16]): no binding (tested: 500 nM)
% antigen binding cells (human EGFR-Fc [17]): 5.16%
% antigen binding cells (mouse EGFR-Fc [18]): 5.68%
% antigen binding cells (human Her2/neu-Fc [19]): 44.2%

B11: laminin-binding CD81 LEL mutant L3B_LU1_2 (designed binder)
chain: FVNKDQIAKDVKQFYDQCLKYACKQGDWENAKACVKTFHETLDCCGSSTVANMTRCVLPANLCPSGSNIISNLFKEDCHQKIDDLFSGK
A450/620 (average) (human placental laminin): 1.32

B12: laminin-binding CD81 LEL mutant L2A_LU1 (designed binder)
chain: FVNKDQIAKDVKQFYDQALRECCNTFDANNACAVVKTFHETLDCCGSSTTHSSTGCVLFFNLCPSGSNIISNLFKEDCHQKIDDLFSGK
A450/620 (average) (human placental laminin): 0.156
